From article PMC6822712
Each block holds one molecule with its values, some of them ahead of it.

Key:
TrkB (human) (human) = TrkB (human) (human) (UniProt Q16620)
TrkC (human) (human) = TrkC (human) (human) (UniProt Q16288)
TrkC (rat) (rat) = TrkC (rat) (rat) (UniProt Q03351)
TrkB (rat) (rat) = TrkB (rat) (rat) (UniProt Q63604)
TrkA (human) (human) = TrkA (human) (human) (UniProt P04629)
Sequence of UniProt P04629 (P04629 33-796): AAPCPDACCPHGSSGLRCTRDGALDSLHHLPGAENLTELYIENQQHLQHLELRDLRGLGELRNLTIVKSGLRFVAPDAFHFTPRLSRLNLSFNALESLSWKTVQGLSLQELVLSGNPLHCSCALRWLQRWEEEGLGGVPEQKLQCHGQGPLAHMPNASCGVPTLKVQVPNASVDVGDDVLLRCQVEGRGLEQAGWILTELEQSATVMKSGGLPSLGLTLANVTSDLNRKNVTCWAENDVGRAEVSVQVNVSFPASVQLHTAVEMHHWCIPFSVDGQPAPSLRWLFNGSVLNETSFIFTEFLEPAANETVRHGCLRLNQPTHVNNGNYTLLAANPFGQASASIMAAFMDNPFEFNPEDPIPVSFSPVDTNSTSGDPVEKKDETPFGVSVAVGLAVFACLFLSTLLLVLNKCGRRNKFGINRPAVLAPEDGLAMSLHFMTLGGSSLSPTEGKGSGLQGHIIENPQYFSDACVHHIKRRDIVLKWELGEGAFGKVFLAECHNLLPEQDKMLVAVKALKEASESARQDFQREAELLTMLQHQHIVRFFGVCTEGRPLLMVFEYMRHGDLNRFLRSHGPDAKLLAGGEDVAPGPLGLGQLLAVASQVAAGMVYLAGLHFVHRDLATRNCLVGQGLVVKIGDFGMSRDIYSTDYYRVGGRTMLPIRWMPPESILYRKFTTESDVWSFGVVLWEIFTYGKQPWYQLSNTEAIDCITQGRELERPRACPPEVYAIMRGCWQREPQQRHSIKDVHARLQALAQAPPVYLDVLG

Sequence of UniProt Q16288 (Q16288 32-839): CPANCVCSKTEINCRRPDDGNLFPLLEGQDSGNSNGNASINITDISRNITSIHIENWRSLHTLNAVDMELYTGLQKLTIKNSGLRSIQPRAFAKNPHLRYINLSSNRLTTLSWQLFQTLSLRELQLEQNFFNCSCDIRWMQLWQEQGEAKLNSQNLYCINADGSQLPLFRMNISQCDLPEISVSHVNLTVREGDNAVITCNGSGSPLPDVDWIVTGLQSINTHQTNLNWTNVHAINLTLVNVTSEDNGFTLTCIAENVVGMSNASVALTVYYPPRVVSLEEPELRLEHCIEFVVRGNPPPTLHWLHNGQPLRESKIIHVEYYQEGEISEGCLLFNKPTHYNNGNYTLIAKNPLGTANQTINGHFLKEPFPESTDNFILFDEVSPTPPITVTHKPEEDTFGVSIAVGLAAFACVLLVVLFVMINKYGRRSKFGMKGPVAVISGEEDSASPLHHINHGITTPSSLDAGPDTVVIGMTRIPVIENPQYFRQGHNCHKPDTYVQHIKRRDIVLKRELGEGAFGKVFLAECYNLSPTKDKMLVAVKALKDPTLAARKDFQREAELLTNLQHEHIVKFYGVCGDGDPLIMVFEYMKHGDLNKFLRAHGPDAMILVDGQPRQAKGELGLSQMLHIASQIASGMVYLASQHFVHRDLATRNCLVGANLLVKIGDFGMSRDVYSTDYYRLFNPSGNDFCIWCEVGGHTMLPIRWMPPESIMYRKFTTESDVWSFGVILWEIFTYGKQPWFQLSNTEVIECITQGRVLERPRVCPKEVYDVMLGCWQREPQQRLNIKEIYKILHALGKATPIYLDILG
Sequence of UniProt Q03351 (Q03351 32-864): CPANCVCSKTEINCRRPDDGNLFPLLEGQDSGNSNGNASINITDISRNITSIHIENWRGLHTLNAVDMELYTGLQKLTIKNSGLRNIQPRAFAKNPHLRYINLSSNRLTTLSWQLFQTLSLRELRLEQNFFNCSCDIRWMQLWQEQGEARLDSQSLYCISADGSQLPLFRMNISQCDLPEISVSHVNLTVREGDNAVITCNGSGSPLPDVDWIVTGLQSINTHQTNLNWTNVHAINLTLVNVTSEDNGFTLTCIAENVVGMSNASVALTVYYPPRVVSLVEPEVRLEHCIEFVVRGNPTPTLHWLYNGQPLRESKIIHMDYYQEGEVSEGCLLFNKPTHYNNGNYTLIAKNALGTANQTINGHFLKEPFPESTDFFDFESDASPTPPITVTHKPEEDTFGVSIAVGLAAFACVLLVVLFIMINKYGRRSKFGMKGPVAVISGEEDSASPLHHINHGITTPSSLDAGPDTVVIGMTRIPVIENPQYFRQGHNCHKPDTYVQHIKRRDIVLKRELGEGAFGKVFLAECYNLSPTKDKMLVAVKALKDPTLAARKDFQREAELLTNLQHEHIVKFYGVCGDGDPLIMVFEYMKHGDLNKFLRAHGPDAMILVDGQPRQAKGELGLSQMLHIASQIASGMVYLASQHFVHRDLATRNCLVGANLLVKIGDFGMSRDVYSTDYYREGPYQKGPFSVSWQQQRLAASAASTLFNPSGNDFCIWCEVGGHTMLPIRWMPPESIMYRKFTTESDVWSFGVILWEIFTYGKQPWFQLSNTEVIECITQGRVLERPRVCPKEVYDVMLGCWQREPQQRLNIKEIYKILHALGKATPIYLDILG
Sequence of UniProt Q63604 (Q63604 32-821): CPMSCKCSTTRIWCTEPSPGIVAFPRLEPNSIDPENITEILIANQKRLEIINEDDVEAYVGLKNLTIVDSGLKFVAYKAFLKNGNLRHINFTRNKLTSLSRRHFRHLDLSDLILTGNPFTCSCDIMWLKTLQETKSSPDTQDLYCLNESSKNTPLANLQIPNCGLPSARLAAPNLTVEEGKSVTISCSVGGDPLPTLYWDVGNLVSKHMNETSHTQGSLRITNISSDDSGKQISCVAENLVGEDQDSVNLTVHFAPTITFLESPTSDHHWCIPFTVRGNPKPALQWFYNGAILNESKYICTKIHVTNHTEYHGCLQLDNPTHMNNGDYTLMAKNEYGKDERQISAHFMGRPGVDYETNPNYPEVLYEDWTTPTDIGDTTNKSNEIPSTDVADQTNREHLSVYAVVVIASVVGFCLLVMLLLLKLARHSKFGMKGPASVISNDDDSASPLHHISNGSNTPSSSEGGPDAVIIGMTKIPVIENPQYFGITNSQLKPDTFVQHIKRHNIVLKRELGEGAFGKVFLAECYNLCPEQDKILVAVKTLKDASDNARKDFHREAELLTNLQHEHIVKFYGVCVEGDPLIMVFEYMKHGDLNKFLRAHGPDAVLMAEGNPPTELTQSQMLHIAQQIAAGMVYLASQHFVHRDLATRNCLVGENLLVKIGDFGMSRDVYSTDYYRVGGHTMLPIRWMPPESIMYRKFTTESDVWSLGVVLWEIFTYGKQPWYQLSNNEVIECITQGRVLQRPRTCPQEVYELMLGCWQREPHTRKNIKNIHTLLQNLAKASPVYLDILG
Sequence of UniProt Q16620 (Q16620 32-822): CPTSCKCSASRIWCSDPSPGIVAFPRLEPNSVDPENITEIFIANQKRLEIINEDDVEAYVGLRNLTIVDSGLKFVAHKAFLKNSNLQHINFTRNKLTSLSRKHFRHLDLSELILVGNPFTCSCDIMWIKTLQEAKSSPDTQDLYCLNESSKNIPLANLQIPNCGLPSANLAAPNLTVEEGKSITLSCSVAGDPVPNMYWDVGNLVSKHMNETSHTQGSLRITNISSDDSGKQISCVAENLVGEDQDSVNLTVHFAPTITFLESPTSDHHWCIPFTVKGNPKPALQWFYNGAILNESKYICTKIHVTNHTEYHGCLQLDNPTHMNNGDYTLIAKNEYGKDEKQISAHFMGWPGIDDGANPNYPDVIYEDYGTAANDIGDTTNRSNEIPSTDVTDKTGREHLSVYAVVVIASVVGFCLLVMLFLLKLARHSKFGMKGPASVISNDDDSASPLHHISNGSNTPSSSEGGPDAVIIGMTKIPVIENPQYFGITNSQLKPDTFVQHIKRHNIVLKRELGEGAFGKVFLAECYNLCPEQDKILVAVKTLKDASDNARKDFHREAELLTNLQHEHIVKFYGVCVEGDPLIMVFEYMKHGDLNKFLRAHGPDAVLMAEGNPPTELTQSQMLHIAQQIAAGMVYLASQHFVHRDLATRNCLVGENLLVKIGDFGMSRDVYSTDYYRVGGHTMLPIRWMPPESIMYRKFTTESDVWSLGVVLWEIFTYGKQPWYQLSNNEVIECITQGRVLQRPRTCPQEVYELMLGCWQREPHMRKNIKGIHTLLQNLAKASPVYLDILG

EC50 of ERK phosphorylation (phospho-ERK AlphaLISA), HEK293 cells stably expressing human TrkB (TrkB (human) (human)): 0.68 nM
Max (%) of ERK phosphorylation (phospho-ERK AlphaLISA), relative to 10nM BDNF, HEK293 cells stably expressing human TrkB (TrkB (human) (human)): 114%
EC50 of ERK phosphorylation (phospho-ERK AlphaLISA), NIH3T3 cells stably expressing human TrkC (TrkC (human) (human)): 26.8 nM
Max (%) of ERK phosphorylation (phospho-ERK AlphaLISA), relative to 10nM NT-3, NIH3T3 cells stably expressing human TrkC (TrkC (human) (human)): 104%
EC50 of ERK phosphorylation (phospho-ERK AlphaLISA), NIH3T3 cells stably expressing rat TrkC (TrkC (rat) (rat)): 4.97 nM
Max (%) of ERK phosphorylation (phospho-ERK AlphaLISA), relative to 10nM NT-3, NIH3T3 cells stably expressing rat TrkC (TrkC (rat) (rat)): 76.2%
EC50 of ERK phosphorylation (phospho-ERK AlphaLISA), HEK293 cells stably expressing rat TrkB (TrkB (rat) (rat)): 0.19 nM
Max (%) of ERK phosphorylation (phospho-ERK AlphaLISA), relative to 10nM BDNF, HEK293 cells stably expressing rat TrkB (TrkB (rat) (rat)): 104%
EC50 of ERK phosphorylation (phospho-ERK AlphaLISA), NIH3T3 cells expressing human TrkA; no response (TrkA (human) (human)): > 100 nM
Molecule: BDNF (ligand)

EC50 of ERK phosphorylation (phospho-ERK AlphaLISA), HEK293 cells stably expressing human TrkB (TrkB (human) (human)): 2.05 nM
Max (%) of ERK phosphorylation (phospho-ERK AlphaLISA), relative to 10nM BDNF, HEK293 cells stably expressing human TrkB (TrkB (human) (human)): 58.5%
EC50 of ERK phosphorylation (phospho-ERK AlphaLISA), NIH3T3 cells stably expressing human TrkC (TrkC (human) (human)): 0.4 nM
Max (%) of ERK phosphorylation (phospho-ERK AlphaLISA), relative to 10nM NT-3, NIH3T3 cells stably expressing human TrkC (TrkC (human) (human)): 106%
EC50 of ERK phosphorylation (phospho-ERK AlphaLISA), NIH3T3 cells stably expressing rat TrkC (TrkC (rat) (rat)): 0.21 nM
Max (%) of ERK phosphorylation (phospho-ERK AlphaLISA), relative to 10nM NT-3, NIH3T3 cells stably expressing rat TrkC (TrkC (rat) (rat)): 103%
EC50 of ERK phosphorylation (phospho-ERK AlphaLISA), HEK293 cells stably expressing rat TrkB (TrkB (rat) (rat)): 10.7 nM
Max (%) of ERK phosphorylation (phospho-ERK AlphaLISA), relative to 10nM BDNF, HEK293 cells stably expressing rat TrkB (TrkB (rat) (rat)): 83%
EC50 of ERK phosphorylation (phospho-ERK AlphaLISA), NIH3T3 cells expressing human TrkA (TrkA (human) (human)): 4.35 nM
Max (%) of ERK phosphorylation (phospho-ERK AlphaLISA), NIH3T3 cells expressing human TrkA (TrkA (human) (human)): 73.6%
B1: NT-3 (ligand)
chain: YAEHKSHRGEYSVCDSESLWVTDKSSAIDIRGHQVTVLGEIKTGNSPVKQYFYETRCKEARPVKNGCRGIDDKHWNSQCKTSQTYVRALTSENNKLVGWRWIRIDTSCVCALSRKIGRT
